From patent publication US20080300206

Target: recombinant wild-type human alpha-synuclein

B1: G protein-coupled receptor kinase 6 (GRK6) (protein)
chain: MELENIVANTVLLKAREGGGGNRKGKSKKWRQMLQFPHISQCEELRLSLERDYHSLCERQPIGRLLFREFCATRPELSRCVAFLDGVAEYEVTPDDKRKACGRQLTQNFLSHTGPDLIPEVPRQLVTNCTQRLEQGPCKDLFQELTRLTHEYLSVAPFADYLDSIYFNRFLQWKWLERQPVTKNTFRQYRVLGKGGFGEVCACQVRATGKMYACKKLEKKRIKKRKGEAMALNEKQILEKVNSRFVVSLAYAYETKDALCLVLTLMNGGDLKFHIYHMGQAGFPEARAVFYAAEICCGLEDLHRERIVYRDLKPENILLDDHGHIRISDLGLAVHVPEGQTIKGRVGTVGYMAPEVVKNERYTFSPDWWALGCLLYEMIAGQSPFQQRKKKIKREEVERLVKEVPEEYSERFSPQARSLCSQLLCKDPAERLGCRGGSAREVKEHPLFKKLNFKRLGAGMLEPPFKPDPQAIYCKDVLDIEQFSTVKGVELEPTDQDFYQKFATGSVPIPWQNEMVETECFQELNVFGLDGSVPPDLDWKGQPPAPPKKGLLQRLFSRQDCCGNCSDSEEELPTRL
- S129 phosphorylation in vitro, normalised by activity units: The most prominent result came from GRK6
- S129 phosphorylation, immunoblot (11A5), kinase:AS 1:200 molar: Prominent signals came from GRK6, CKI, CKII and PLK2
- S129 phosphorylation, immunoblot (11A5), rank of signal: CKI>GRK6>PLK2>GRK4>GRK5>GRK2
- in vitro kinase reaction, phosphorylation of alpha-synuclein at serine 129: capable of phosphorylating alpha-synuclein specifically at serine 129 and did not phosphorylate serine 87 in vitro
- phospho ser-129 level in vitro, normalised for molarity: roughly equivalent levels of phospho ser-129 between CKI, GRK6 and PLK2

B2: GRK4 (protein)
chain: MELENIVANSLLLKARQGGYGKKSGRSKKWKEILTLPPVSQCSELRHSIEKDYSSLCDKQPIGRRLFRQFCDTKPTLKRHIEFLDAVAEYEVADDEDRSDCGLSILDRFFNDKLAAPLPEIPPDVVTECRLGLKEENPSKKAFEECTRVAHNYLRGEPFEEYQESSYFSQFLQWKWLERQPVTKNTFRHYRVLGKGGFGEVCACQVRATGKMYACKKLQKKRIKKRKGEAMALNEKRILEKVQSRFVVSLAYAYETKDALCLVLTIMNGGDLKFHIYNLGNPGFDEQRAVFYAAELCCGLEDLQRERIVYRDLKPENILLDDRGHIRISDLGLATEIPEGQRVRGRVGTVGYMAPEVVNNEKYTFSPDWWGLGCLIYEMIQGHSPFKKYKEKVKWEEVDQRIKNDTEEYSEKFSEDAKSICRMLLTKNPSKRLGCRGEGAAGVKQHPVFKDINFRRLEANMLEPPFCPDPHAVYCKDVLDIEQFSVVKGIYLDTADEDFYARFATGCVSIPWQNEMIESGCFKDINKSESEEALPLDLDKNIHTPVSRPNRGFFYRLFRRGGCLTMVPSEKEVEPKQC
- S129 phosphorylation, immunoblot (11A5), rank of signal: CKI>GRK6>PLK2>GRK4>GRK5>GRK2

B3: GRK2 (protein)
chain: MADLEAVLADVSYLMAMEKSKATPAARASKKILLPEPSIRSVMQKYLEDRGEVTFEKIFSQKLGYLLFRDFCLNHLEEARPLVEFYEEIKKYEKLETEEERVARSREIFDSYIMKELLACSHPFSKSATEHVQGHLGKKQVPPDLFQPYIEEICQNLRGDVFQKFIESDKFTRFCQWKNVELNIHLTMNDFSVHRIIGRGGFGEVYGCRKADTGKMYAMKCLDKKRIKMKQGETLALNERIMLSLVSTGDCPFIVCMSYAFHTPDKLSFILDLMNGGDLHYHLSQHGVFSEADMRFYAAEIILGLEHMHNRFVVYRDLKPANILLDEHGHVRISDLGLACDFSKKKPHASVGTHGYMAPEVLQKGVAYDSSADWFSLGCMLFKLLRGHSPFRQHKTKDKHEIDRMTLTMAVELPDSFSPELRSLLEGLLQRDVNRRLGCLGRGAQEVKESPFFRSLDWQMVFLQKYPPPLIPPRGEVNAADAFDIGSFDEEDTKGIKLLDSDQELYRNFPLTISERWQQEVAETVFDTINAETDRLEARKKAKNKQLGHEEDYALGKDCIMHGYMSKMGNPFLTQWQRRYFYLFPNRLEWRGEGEAPQSLLTMEEIQSVEETQIKERKCLLLKIRGGKQFILQCDSDPELVQWKKELRDAYREAQQLVQRVPKMKNKPRSPVVELSKVPLVQRGSANGL
- S129 phosphorylation, immunoblot (11A5), rank of signal: CKI>GRK6>PLK2>GRK4>GRK5>GRK2
- in vitro kinase reaction, phosphorylation of alpha-synuclein at serine 129: capable of phosphorylating alpha-synuclein specifically at serine 129 and did not phosphorylate serine 87 in vitro

B4: GRK7 (protein)
chain: MVDMGALDNLIANTAYLQARKPSDCDSKELQRRRRSLALPGLQGCAELRQKLSLNFHSLCEQQPIGRRLFRDFLATVPTFRKAATFLEDVQNWELAEEGPTKDSALQGLVATCASAPAPGNPQPFLSQAVATKCQAATTEEERVAAVTLAKAEAMAFLQEQPFKDFVTSAFYDKFLQWKLFEMQPVSDKYFTEFRVLGKGGFGEVCAVQVKNTGKMYACKKLDKKRLKKKGGEKMALLEKEILEKVSSPFIVSLAYAFESKTHLCLVMSLMNGGDLKFHIYNVGTRGLDMSRVIFYSAQIACGMLHLHELGIVYRDMKPENVLLDDLGNCRLSDLGLAVEMKGGKPITQRAGTNGYMAPEILMEKVSYSYPVDWFAMGCSIYEMVAGRTPFKDYKEKVSKEDLKQRTLQDEVKFQHDNFTEEAKDICRLFLAKKPEQRLGSREKSDDPRKHHFFKTINFPRLEAGLIEPPFVPDPSVVYAKDIAEIDDFSEVRGVEFDDKDKQFFKNFATGAVPIAWQEEIIETGLFEELNDPNRPTGCEEGNSSKSGVCLLL
- S129 phosphorylation, immunoblot (11A5): Prominent signals came from all GRKs except for GRK7
- in vitro kinase reaction, phosphorylation of alpha-synuclein at serine 129: capable of phosphorylating alpha-synuclein specifically at serine 129 and did not phosphorylate serine 87 in vitro
- phosphorylation of AS in vitro: GRK 7 was not able to phosphorylate at appreciable levels

B5: PLK3 (protein)
chain: MEPAAGFLSPRPFQRAAAAPAPPAGPGPPPSALRGPELEMLAGLPTSDPGRLITDPRSGRTYLKGRLLGKGGFARCYEATDTETGSAYAVKVIPQSRVAKPHQREKILNEIELHRDLQHRHIVRFSHHFEDADNIYIFLELCSRKSLAHIWKARHTLLEPEVRYYLRQILSGLKYLHQRGILHRDLKLGNFFITENMELKVGDFGLAARLEPPEQRKKTICGTPNYVAPEVLLRQGHGPEADVWSLGCVMYTLLCGSPPFETADLKETYRCIKQVHYTLPASLSLPARQLLAAILRASPRDRPSIDQILRHDFFTKGYTPDRLPISSCVTVPDLTPPNPARSLFAKVTKSLFGRKKKSKNHAQERDEVSGLVSGLMRTSVGHQDARPEAPAASGPAPVSLVETAPEDSSPRGTLASSGDGFEEGLTVATVVESALCALRNCIAFMPPAEQNPAPLAQPEPLVWVSKWVDYSNKFGFGYQLSSRRVAVLFNDGTHMALSANRKTVHYNPTSTKHFSFSVGAVPRALQPQLGILRYFASYMEQHLMKGGDLPSVEEVEVPAPPLLLQWVKTDQALLMLFSDGTVQVNFYGDHTKLILSGWEPLLVTFVARNRSACTYLASHLRQLGCSPDLRQRLRYALRLLRDRSPA
- Fold Change in Percent Synuclein Phosphorylation, HEK-293 overexpression: 39.6 fold
- Proportion of total synuclein that is phoshorylated at ser-129, HEK-293 overexpression, ELISA: 79.2%
- in vitro biochemical assay, phosphorylation of synuclein: PLK2 and PLK3 having extremely robust phosphorylation of synuclein
